Results as given in the supplement of paper PMC10567573.

B1: PDZK1 (parent)
chain: FQAKKIPIVSSLADPLDTPPDSKE
B2: ZNF511 (parent)
chain: YEHHYHTLHGNVCSFCKRAFPSGH

Variants of: B1
Assay: protein stability index of a GFP-peptide fusion (GPS, HEK-293T) (PSI 1-6); higher = more stable
Details: c terminus: a fixed tail appended
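Further: lentivirally expressed fusions sorted by FACS into six bins by GFP to DsRed ratio, PSI derived from sequencing read proportions per bin multiplied by bin number.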

Protein stability index, by site and new letter:
D14: V 4.1
D21: R 2.76 | G 2.89
D17: L 3.28 | A 3.75
P20: C 3.94 | A 4.05 | R 3.77 | H 3.53 | S 3.62 | D 4.28 | N 3.7 | K 3.88 | V 3.74 | W 2.62 | F 3.17 | E 4.21 | I 3.61 | Y 3.89 | T 3.58 | M 3.75 | Q 3.73 | G 4.28 | L 3.35
P19: F 2.9 | A 3.43 | S 3.67 | N 3.88 | E 3.35 | R 3.56 | I 3.55 | L 3.2 | V 3.54 | G 3.91 | W 3.19 | Y 3.81 | H 4.01 | T 3.85 | M 3.72 | C 3.53 | K 3.66 | Q 4.17 | D 3.87
P15: V 3.43 | R 3.73 | L 2.86 | Q 3.71 | C 3.55 | A 3.61 | K 3.25 | S 3.58 | H 3.85 | M 3.11 | N 3.64 | T 3.57 | D 4.1 | Y 3.32 | G 4.12 | W 2.45 | I 3.53 | E 3.48 | F 3.23
L16: W 2.99 | N 4.27 | C 3.72 | I 3.91 | E 4.07 | V 3.91 | M 3.79 | G 3.85 | R 3.77 | F 2.89 | K 3.76 | S 4.13 | A 3.85 | Y 3.47
T18: G 3.62 | D 3.68 | A 3.59 | S 3.53 | I 3.75 | W 3.86 | R 3.6 | E 3.75 | N 3.48 | C 3.46 | F 3.55 | V 3.57 | Y 3.33 | H 3.29 | M 3.73 | K 3.81
K23: R 3.23 | V 3.33 | G 3.94

Variants of: B2
Assay: as above
Details: c terminus: a fixed tail appended

Protein stability index, by site and new letter:
H4: L 2.07 | G 2.05 | T 1.95 | N 2.23 | K 2.03 | E 2.7 | A 1.75 | P 2.38 | F 1.33 | Y 1.93 | D 2.17 | S 2.43 | I 1.82 | V 1.91 | Q 2.1 | C 3.26 | R 1.73 | W 1.73 | M 2.52
T7: S 1.72 | G 2.14 | A 1.95 | F 2.06 | Q 1.9 | I 2.31 | N 2.09 | M 2.86 | V 1.85 | P 2.2 | E 2.07 | H 2.46 | Y 2.09 | R 2.07 | K 1.24 | L 2.28 | C 2.77 | W 1.75 | D 2.64
H6: C 2.6 | R 1.38 | A 1.88 | I 2.15 | L 1.72 | E 2.4 | K 1.53 | D 2.34 | Y 1.83 | P 1.68 | N 2.33 | S 1.92 | T 1.94 | G 1.69 | M 1.6 | F 1.48 | Q 1.88 | V 2.51 | W 1.66
L8: E 2.65 | V 2.74 | G 2.52 | T 2.67 | Y 2.6 | R 2.4 | C 3.62 | A 2.47 | N 2.67 | H 2.92 | S 2.23 | D 2.57 | P 2.43 | I 2.44 | Q 2.62 | W 2.3 | M 2.12 | K 2.26 | F 2.62
Y5: E 3.85 | T 3.67 | S 3.01 | I 2.68 | A 2.81 | Q 3.28 | K 2.54 | L 2.48 | M 2.39 | N 3.01 | G 3.54 | D 3.51 | C 3.95 | R 2.62 | V 3.47 | F 2.29 | W 2.32 | H 3.22 | P 3.04
G10: N 2.28 | A 2.23 | W 2.29 | V 1.87 | H 1.87 | S 1.97 | Q 1.78 | P 1.95 | K 2.76 | Y 2.46 | C 2.46 | D 2.29 | R 1.59 | T 2.13 | E 2.39 | F 1.78 | L 1.95 | M 2.01 | I 1.83
C13: I 2.6 | F 1.5 | M 1.83 | H 1.9 | D 2.29 | E 2.36 | L 1.5 | K 2.04 | N 2.67 | G 2.54 | A 2.18
N11: K 2.31 | Q 2.2 | V 1.87 | L 1.77 | W 2.17 | T 2.68 | E 2.22 | Y 1.99 | I 1.83 | F 2.6 | R 2.62 | H 2.21 | A 2.64 | C 2.73 | M 2.68 | P 2.6 | D 2.75 | S 1.95 | G 2.12
H3: F 2.06 | A 1.97 | L 2.13 | G 3.04 | N 2.52 | P 2.8 | W 2.12 | V 2.09 | Y 2.23 | S 2.6 | K 2.27 | E 2.9 | D 3.06 | T 2.91 | Q 2.19 | M 1.94 | R 2.09 | C 3.57 | I 2.18
V12: D 3.41 | S 2.41 | F 2.05 | R 2.24 | G 1.84 | N 2.73 | P 2.31 | E 3.67 | I 2.3 | M 2.17 | W 2.14 | H 2.4 | T 2.44 | C 2.02 | L 2.06 | K 2 | Y 2.13 | A 2.44 | Q 2.66
Y1: H 2.81 | N 3.38 | G 2.99 | S 3.29 | Q 3.62 | K 3.02 | F 2.72 | L 2.75 | C 4.05 | I 2.89 | A 3.02 | V 2.51 | W 2.07 | R 2.22 | M 2.63 | P 2.98 | D 3.67 | T 2.75 | E 3
E2: L 1.65 | G 2.9 | R 1.8 | F 3.12 | C 2.15 | V 2.89 | M 2.08 | S 3.32 | A 3.31 | Q 2.43 | W 2.85 | Y 2.27 | N 1.37 | T 3.14 | K 1.76 | H 2.66 | I 2.34 | D 2.9 | P 1.54
H9: V 2.57 | E 1.93 | K 2.77 | F 1.68 | S 1.72 | N 2.49 | Q 2.19 | C 2.18 | Y 2 | I 2.28 | L 1.5 | M 2.06 | T 2.16 | P 2.72 | R 2.48 | W 1.83 | A 1.93 | D 1.97 | G 2.24
